Test results from publication doi:10.1101/768242 (bioRxiv, 2019).

Key:
[1] = biological target: T1, phospho-Ser45-β-catenin (pS45-β-catenin) (human, UniProt P35222 1-781, phosphoserine at 45); test: BLI
T1 sequence: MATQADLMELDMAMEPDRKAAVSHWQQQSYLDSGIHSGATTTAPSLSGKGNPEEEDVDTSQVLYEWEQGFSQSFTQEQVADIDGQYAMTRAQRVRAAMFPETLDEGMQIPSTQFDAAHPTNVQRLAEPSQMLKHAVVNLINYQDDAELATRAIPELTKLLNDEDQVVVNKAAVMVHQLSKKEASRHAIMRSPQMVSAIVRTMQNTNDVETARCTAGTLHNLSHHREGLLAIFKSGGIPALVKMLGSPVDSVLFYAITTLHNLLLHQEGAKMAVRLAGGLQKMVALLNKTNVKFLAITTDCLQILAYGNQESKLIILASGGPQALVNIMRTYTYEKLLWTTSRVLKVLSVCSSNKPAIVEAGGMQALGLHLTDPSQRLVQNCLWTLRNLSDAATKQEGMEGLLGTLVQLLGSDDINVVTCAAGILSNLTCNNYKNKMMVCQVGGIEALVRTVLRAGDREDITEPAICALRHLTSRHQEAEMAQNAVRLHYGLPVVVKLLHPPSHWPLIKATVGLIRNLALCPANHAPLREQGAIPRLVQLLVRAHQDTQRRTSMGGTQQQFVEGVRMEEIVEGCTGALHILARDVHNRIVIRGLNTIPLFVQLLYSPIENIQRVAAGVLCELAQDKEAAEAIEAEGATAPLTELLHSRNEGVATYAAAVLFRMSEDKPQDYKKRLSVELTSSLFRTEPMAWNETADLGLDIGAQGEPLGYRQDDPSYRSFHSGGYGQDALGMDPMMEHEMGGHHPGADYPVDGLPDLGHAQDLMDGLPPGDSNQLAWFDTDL

GSK3β = GSK3β (human, UniProt P49841 1-420, phosphorylated on the activation loop Tyr216); test: BLI
Sequence of GSK3β (P49841 whole entry): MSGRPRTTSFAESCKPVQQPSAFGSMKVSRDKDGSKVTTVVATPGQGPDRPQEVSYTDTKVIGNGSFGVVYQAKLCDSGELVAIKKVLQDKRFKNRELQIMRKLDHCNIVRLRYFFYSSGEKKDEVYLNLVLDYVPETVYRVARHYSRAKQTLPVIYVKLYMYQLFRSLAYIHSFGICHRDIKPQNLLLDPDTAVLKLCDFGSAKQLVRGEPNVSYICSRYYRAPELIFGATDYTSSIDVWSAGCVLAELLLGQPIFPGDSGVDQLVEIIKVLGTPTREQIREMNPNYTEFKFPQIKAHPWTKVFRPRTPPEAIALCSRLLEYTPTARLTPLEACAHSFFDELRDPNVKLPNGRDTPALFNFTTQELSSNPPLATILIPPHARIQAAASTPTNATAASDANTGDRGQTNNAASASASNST

Kd [1]: 4 µM
Kd (GSK3β): 0.016 µM
B1: Axin_(384-518) (miniAxin) (domain or fragment)
chain: EPQKFAEELIHRLEAVQRTREAEEKLEERLKRVRMEEEGEDGDPSSGPPGPCHKLPPAPAWHHFPPRCVDMGCAGLRDAHEENPESILDEHVQRVLRTPGRQSPGPGHRSPDSGHVAKMPVALGGAASGHGKHVP
